Reference: publication doi:10.1101/2020.05.06.080465

Molecular target: 19S proteasomal subunit (human (endogenous in HeLa))
Assay: SEC

Substance: ubiquitin receptor ADRM1 (from UniProt Q16186 1-407) (natural protein)
- percent of the ADRM1 signal associated with 19S: 15%
